# Measurements reported in the DeepSol protein solubility set.
# Test: soluble on expression in E. coli; label from the status in PepcDB or PDB records
row,Sequence,soluble on expression in E. coli
1,IIAWLGPQLRELTPVDTNKDPKTRLQEFLQSRGCDLPRYEVVDIQGEPHCRTFFVDCEVALLSDKTHGHGGSRRIAEQVAAAAALVALGVENGHD,not soluble
2,MTYDSEFGSHVSLYRDRIKQVIDDSLNEHLNSMILRVDLHDPIDTENMDNPFFQPRVDSGAISRFTSALKAKLKHDKHIKTQRKDWPDSRHSTLRYAWVREYTKNRKRHYHLILCFNQDAYYHLGDYDLNRNTLRTMITTAWYSALGIPIDSSGKLVNYPPNGKYLLNRKRDNFEQTYSDLMNRVDYMTKVRTKIVGDGDRNFGCSRG,soluble
3,MGSDKIHHHHHHMQHDDQPLPQTAPHGRVISHLGETDTDDATLLASIKTRLRQHNDRSAAEMEHLLQLVDALWAMELGRFLLRNRGLNANWTHQLVTYQAGTLVQQTTPALEYELFEKTPAVLATRERFGIFRTQLQALLRPGMTLASLPCGWMADVLSLDYGQCPDVRLIGIDLDPQALDGALRLAQQYGLEGQLTLQREDAWAPGEPNSVDVLSSNGLNLYEPDDARVIALYRAFFDRLRPGGTLVASFLTPPPSLCAESPWKLDLIDGAALVLQSQVFIDVVQARWASFRTHAQTRTQLESAGFTDVRFIDDRASIFPTVIARKPMSD,not soluble
4,MSLAKLTINDIAKKAKTSKTTVSFYLNGKFDKMSPDTKRRIEQVIEETNYSPNIMARSLKLKKSNLIGVVVADITNPFSSNIVKGIGEITRRKGYQILVGSTNLDYYNEEEYFKKMLDMGVDGFIVQPTKNFDKLYPAIKNKGKKIVVLDSVSSRYTGKWVKTNNYEIVYEAVLKLAEKGYEEFILVTEAPDKLAARMERKTGFEDAVNKINCKSFIEIINENTEVDEIAEMLKINISNNKKTVIFAINGKILQKVFKAVKMEGFDVPNHVGIIGFDKWDWTMYASPSVTTIDQPTYEEGKYAAKMLIEMIEENDDFYKSEVFDCNINWEESTDEGHHHHHH,soluble
5,GPGSMLSTIKTRPQGPYCGDYFSIVEGRVDFPVDLDTFDISLTISGDVEECKNEPYVYDEVSGNVELTNAQDPGDCLGSILRRNQLTLMVTYHPDDDKISLDFGIAVVNLSPCP,not soluble
6,LVGSRREIAARNLELCFPEKSPAERERLLKENFASSGIAFFEMAMSWWWPKARLARLAHIEGLEHLREAQAQGEGVILMALHFTTLEIGAALLGQVHTIDGMYREHDNPVFDYVQRRGRERHNLDATAIEREDVRSMLKVLRGGRAIWYAPDQDYGAKQSLFVPLFGIPAATVTATTKFARLGRARVLPFTQSRLADGSGYRLTIHPPLEDFPGESEEADCLRINQWVERCVRQQPEQYLWAHRRFKTRPPGEAK,not soluble
7,AGMSEAPRAETFVFLDLEATGLPSVEPEIAELSLFAVHRSSLENPEHDESGALVLPRVLDKLTLCMCPERPFTAKASEITGLSSEGLARCRKAGFDGAVVRTLQAFLSRQAGPICLVAHNGFDYDFPLLCAELRRLGARLPRDTVCLDTLPALRGLDRAHSHGTRARGRQGYSLGSLFHRYFRAEPSAAHSAEGDVHTLLLIFLHRAAELLAWADEQARGWAHIEPMYLPPDDPSLEA,soluble
8,MSFDGFFLHHMTAELREQVLYGRIQKVNQPFERELVLTIRNNRQNYKLLLSAHPVFGRIQTTKAELPNPQNPNTYTMIMRKYLQGAVIEDIQQLENDRVLEISVSNKNEIGDSVKVTLVMEIMGKHSNIILIDKNENKIIESIKHVGFSQNSYRTILPGSTYIAPPKTDARNPFDISDENLFELLQTEDLSAKNLQKLFQGLGRDTANELSALLETDKLKNFRDFFNREVEPNLTTKAFSAVRFSDSQDQPEFETLSELLDYYYLDKAARDRVAQQASDLIHRVQNELEKNKKKLVKQEKELAATENAEEFRQKGELLTTFLSMVPNDKDSVELDNYYTGEKITIPLNVALTPNQNAQRYFKKYQKLKEAVKHLTGLIEETKQTINYLESVEFSLSQANMDEIEDIREELVQAGFMRRRSTDKRQKRKK,not soluble
9,MKAPSYHVVRGDIATATEGVIINAANSKGQPGGGVCGALYKKFPESFDLQPIEVGKARLVKGAAKHIIHAVGPNFNKVSEVEGDKQLAEAYESIAKIVNDNNYKSVAIPLLSTGIFSGNKDRLTQSLNHLLTALDTTDADVAIYCRDKKWEMTLKEAVARREHHHHHH,soluble
10,MGHHHHHHSHMANSAGSMANSAGSMAKTIKDIKAMVEQAAIQSIHKSSSNVKQIMVKTGQEHIVEDVYGAYDPLLYERTGQVKDAFITTNESNGVSLDNIREDDGKDIATVIETGQGYTYPDSYGYGYGNPRPFMKNTSETLRDGRLTAALKKDLKADGIKTD,not soluble
11,MGSDKIHHHHHHMGILSDKDIAYLKDLFGKELKRKVKIVFFKTEDKTRCQYCEITEQVLEELVSVDPKLELEIHDFDSDKEAVEKYQVEMVPATILLPEDGKDYGIRFYGVPSGHEFGTLIQDIITVSEGKPQLSEESIQKLQSLEEPIRISVFVTPTCPYCPRAVLMAHNMAMASDKIIGEMIEANEYWELSEKFGVSSVPHIVVNRDPSKFFVGAYPEKEFINEVLRLAKG,not soluble
12,MGSDKIHHHHHHMINDHQYVADLHIHLGQTASNRPVKITAARTLTLENIIDYARTVKGIDIIGVIDCHVPEVLEGLKHSIESGEAYELKGGGIRFPDVTLILGTEIEVYDEESLGPVHVLAYTPTWNAMMELSSWMGSRMKNPTLSSQRLYETSIVLQQKVKELGGLFIPAHAFTPFKGVYGKGVKQSMGEIFDLALIDGIELGLSADTSMADQVEELHRFPFLSNSDAHSLEKLAREYQILHLYEPSFQAFQSALRDKDKCSIVANYGLNPYLGKYYETTCAQCRTPMKGSACETCGSSKVVKGVSERLTELATASENNGKQRPPYVHQIPLEFIPKVGKRTLARLREAFGTDMDILHQATFEQLCDVIPNHIAEAIVIAREGKATIKRGGGGHYGKMIGTE,not soluble
13,MGSDKIHHHHHHMASLQIAHNTRIVKEAARIAGFDYCGISAARFLEEEAPRLESWLNRNQHGTMSWMENYFDKRLDPRKLVDGAKSVVSVLLNYTPAPEDEILSTGETKISRYAYGKDYHYVLKDKFKQMLQHITEQIGEVNGRAFVDSAPVMDKAWAKQGGLGWVGKHSNIITKDSGSYFFIGELIIDLELDADGPIKDYCGTCTRCIDACPTNAITEPYQVDGSKCISYLTIELKEQIPSEFKEQMQGWAFGCDICQEVCPWNRFAQPINKNEFSPSEELKKYFEMPLKEITKEVFNILFKDSTIKRTKIEGLSRNLTFIKKET,not soluble
14,DADLATGAKVFSANCAACHAGGINLVNAEKTLKKEALEKFGMNSIVAITTQVTNGKAGMPAFKGRLTDDQIAAVAAYVLDQAEKGW,soluble
15,MKFALQINEGPYQHQASDSAYQFAKAALEKGHEIFRVFFYHDGVNNSTRLTTPPQDDRHIVNRWAELAEQYELDMVVCVAAAQRRGIVDEGEASRNGKDATNIHPKFRISGLGQLVEAAIQADRLVVFGD,soluble
16,MGSDKIHHHHHHFNQYRENVELTAQRLEATYRASNILNLGVACLKKHFGFLGMEINWSTGSVTWFDDFRKRVLLQSDGDAWENVFSLLDTEKYYNLSSDIDFSTEASKLGFSNFEAVAIPFKNNPFFALLVVRAQVGKAVVYKYAVLSSDFLNKYAYFTEKETRPDGDKIYFITQDIIDGPFRSNDVIHVKGEPLFKGSVEFKDIDLEAGEGPRYENPPPKYLTEEDIKKYNIEKIKDYYSQQIERIVKPASEVVLSSEPVGIELPSINEFVESWEEKENDKTIYYKKQREIVYTLEFNTPKGSSGNDYLIKVSYKEVYRIYKSEDQEKWNFVREEVLGEGELFHIKSKPNSDQYHLVLQGNEAREFLGLDRNEYDIYFNGVIKTDNDVYLKNMSEGNIKPMFVDGRYTIVANNIYIEDHIIYNDYREVLEEIADKEKISGNSDQKIAQAVIRKLGVDGNIEEDYSELLKNHESDDFLNLVAYKNVVITDKKPNMKIFASIYAFTGSFYVKGYNEKDFLKNNERELTERELTIFGSLAQYVRGAVGTFYWSRDGKPTIKTGYRKNYIYDWRILKGFSVFGTPTVPKESNILNVREVY,not soluble
17,MVFNFLIVSDEVEDFRREIAIDSEATFLDLQNAILDSVGYSHSELTSFFLCDEDWHKGQEITLMEMDTASDEDSYVMENTRLEEFIEDEHQRLVFEFDLMTERYFFIEVMDIVPGKSLSEPKLLTSEGLPPQQSSLDDLMDPTAIPTKQARGLDLEEDFFGDSEYNEDEIDREGFEGFDEITSDLSDNY,not soluble
18,MGSDKIHHHHHHMIQRRETFLNNVAEKLGRGRRTAGVKRPDYTVKPQFEVMKEHSSDQLVNVLSEQCTKIHTDVKQTKVDRLEQAIDNVLEEYSARNVITWNDPRFDQFGLTSFLQREQVEVWDHTEGERLVEKAEQADIGITFADYTLAESGTVVLLSGNGKGRSVSLLPTYYIAIIPKSTLVPRMSQVTRELHLKAASGERLPSCINFISGPSNSADIEMNLVVGVHGPIRACYIVVEDR,not soluble
19,MALDNAKTSQKLQSLAELDGKAPSHRNLNVQTWSTAEGAKVLFVEARELPMFDLRLIFAAGSSQDGNAPGVALLTNAMLNEGVAGKDVGAIAQGFEGLGADFGNGAYKDMAVASLRSLSAVDKREPALKLFAEVVGKPTFPADSLARIKNQMLAGFEYQKQNPGKLASLELMKRLYGTHPYAHASDGDAKSIPPITLAQLKAFHAKAYAAGNVVIALVGDLSRSDAEAIAAQVSAALPKGPALAKIEQPAEPKASIGHIEFPSSQTSLMLAQLGIDRDDPDYAAVSLGNQILGGGGFGTRLMSEVREKRGLTYGVYSGFTPMQARGPFMINLQTRAEMSEGTLKLVQDVFAEYLKNGPTQKELDDAKRELAGSFPLSTASNADIVGQLGAMGFYNLPLSYLEDFMRQSQELTVEQVKAAMNKHLNVDKMVIVSAGPTVAQKPLEHHHHHH,not soluble
20,MKIESAVEISKTATDFHTALDASSVIGSDRVDQLKSILNLTKSDTALLESNITQAKQLKITLDAQLQQRKALVDEYKSKLTVLEGSYMRKSAEVQRLQNELQNAQKAHAMKATTAPNEKNQANCSIS,not soluble
21,MKRVISKILKKEKEKEEEVEEKTIGLIIDGPNILRKEFGIKLEDIKKALEKIGKIRVAKVVLNQYAPQGLIEAVVNQGFEPIIVAGDTDVRVAIEAMELIYNTDVDVIALATRDADFLPLISEAKRKGKETVVIGVEPGFSVALQNAADYIIKMEKKKEAEGY,soluble
22,MTTDERKLFNHLKSPHLKYWVPFIWFGNLATKARNEGRIRDSVDLQSLMTEMNRYRSWCSLLFGYDWVGIPLVYTQVAEQLINPFGEDDDDFETNWCIDRNLQVSLLAVDEMHMSLPKMKKDIYWDDSAARPPYTLAAADYCIPSFLGSTVQMGLSGSDFPDEEWLWDYEKHGHRHSMIRRVKRFLSAHEHPSSPRRRSYRRQTSDSSMFLPRDDLSPARDLLDVPSRNPPRASPTWKKSCFPEGSPTLHFSMGELSTIRETSQTSTL,soluble
23,MGSDKIHHHHHHMDITPFLNRTLDIPLYQQLYRYFKENMHRGRIQKGMKLPSKRLLANQLSISQTTVERAYEQLAAEGYIVSKPRSGWFADYHDSDFAYDRMPSTTPIQQEAEENKQWIDFHYGNVDSSYFPFSAWRKSMVNSLDQYGHELYRPGHVLGEFELRTLIAEYLYQSRGVHCGPEQVIIGAGNPILLQILCQVFEPNISIGYEDPGYPRARKIFEANRMNIVPIPVDDEGICIQKIKEQQPNLVYVTPSHQFTLGTIMTINRRIQLLKWAAENQSFIIEDDYDGEFRYTGQPVPSLQGLDQHNRVIYMGTFSKSLLPSLRISYMILPSPLLKKGHEITSLYKQTVSCHSQLTLAEFIKNGEWQKHINRMRKLYRKKRAIVLEAVQRELGEHVRIRGENSGLRILLDVYLPFGEKELIEKAKKHGVKIYPVSLSYQHHPPTKTVSLGFAGVSESDIREGIKKLKAAWKI,not soluble
